The text below walks through data of patent publication US20250009876A1 (H LUNDBECK A S, published 2025).

The target in test [1] is T1, VIP (Vasoactive Intestinal Peptide) (human).
T1 construct: also called human VIP
T1 peptide: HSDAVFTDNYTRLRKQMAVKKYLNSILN
Nature of the test: SPR (ProteOn XPR36), antibody amine-coupled, peptide analyte, 1:1 Langmuir fit.

The target in test [2] is T2, PACAP27 (Pituitary Adenylate Cyclase-Activating Polypeptide, 27 amino acids) (human, the C-terminal leucine is amidated).
T2 construct: also called human PACAP27
T2 peptide: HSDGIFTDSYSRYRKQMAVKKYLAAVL
Nature of the test: inhibition of 0.1 nM 125I-PACAP27 binding to membranes with human PAC1-R long isoform, filter binding. On the procedure:
To identify antibodies that block PACAP27 binding to PAC1-R, antibodies at an initial concentration of 30 nM were diluted in incubation buffer (50 mM Hepes pH 7.4, 1 mM CaCl₂, 5 mM MgCl₂, 0.2% BSA) and serial 1:3 dilutions were performed. Antibody dilutions (30 nM, 10 nM, 3 nM, 1 nM, 0.3 nM, 0.1 nM, 0.03 nM, 0.01 nM, 0.003 nM and 0.001 nM) were then mixed and pre-incubated at 25° C. for 30 minutes with 0.1 nM of ¹²⁵I-labelled PACAP27 in incubation buffer. The antibody: ¹²⁵I-labelled PACAP27 mixture was then added to 0.5 μg aliquots of cell membranes derived from Chem-1 cells expressing human recombinant PAC1-R long isoform in incubation buffer. The mixture was then incubated for 1 hour at 25° C. Following incubation, the samples were filtered and washed. Afterward, the filters were counted to quantitate ¹²⁵I-labelled PACAP27. As an experimental control, non-specific binding to the cell membranes was estimated using 0.1 μM of […] PACAP27.

Test [3] addresses T3, PACAP38 (Pituitary Adenylate Cyclase-Activating Polypeptide, 38 amino acids) (human, not fully specified; the C-terminal lysine is amidated).
T3 construct: In the HTRF and PC-12 cell assays the peptide was N-terminally or C-terminally biotinylated; unlabelled in SPR; also called human PACAP38; huPACAP (1-38)
T3 peptide: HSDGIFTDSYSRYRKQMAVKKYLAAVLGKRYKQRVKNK
Description: inhibition of 30 nM biotinylated PACAP38 binding to PAC1-R-expressing PC-12 cells, Eu-streptavidin TRF. On the procedure: (§1) To identify antibodies that block PACAP38 binding to PAC1-R-expressing cells, adherent PC-12 cells (ATCC, Manassas, VA) expressing PAC1-R were used in a Europium-based PAC1-R-expressing cells binding assay. Antibody solutions were incubated with N-terminal biotinylated PACAP38 at 10× the final concentration (100 nM or 30 nM) for 1 hr, then added to PC-12 cells that were plated 24 hrs prior in black clear bottom 96 well plates (COSTAR™, Corning Incorporated, Corning, NY) and further incubated for 1 hr at room temperature. After three washes, the cells were incubated with 20 μl Europium-labeled streptavidin (PerkinElmer, Waltham, MA) for 1 hr at room temperature. Cells were washed three times, then 20 μl DELFIA® Enhancement solution (PerkinElmer, Waltham, MA) was added to each well and incubated for 15 minutes with gentle shaking. Plates were read (Time Resolved Fluorescence (“TRF”)) on SPECTRAMAX® (Molecular Devices, Sunnyvale, CA) plate reader.
(§2) FIGS. 14A-14H are representative of the inhibition curves obtained by this method (results are shown for Ab10, Ab20, Ab21, Ab1.H, Ab10.H, Ab21.H, Ab22, and Ab23, respectively) wherein the PAC1-R expressing cells were PC-12 cells.

For test [4], the target named is T3, PACAP38 (Pituitary Adenylate …). Description: inhibition of 100 nM biotinylated PACAP38 binding to PAC1-R-expressing PC-12 cells, Eu-streptavidin TRF. Here is the method: as §1, §2
Test [5] shares this target. Nature of the test: HTRF binding assay, antibody dilution series on 35 nM biotinylated PACAP38. On the procedure: In parallel, 10 μl of an antibody dilution series (highest final concentration of 100 nM) were incubated with 10 μl of N-terminal or C-terminal biotinylated PACAP38 (35 nM final) alone, or in combination with either PACAP27 (350 nM final) or VIP (350 nM final), i.e., 10× PACAP27 or 10× VIP, respectively, in a HTRF plate. 20 μl of Eu³⁺ cryptate labeled anti-hu Fc donor and 20 μl of d2-labeled streptavidin acceptor were added to each well and incubated for 1 hour at room temperature. Fluorescence was measured at 620 and 665 nm with a delay of 300 usec.
EC₅₀ values, i.e. the concentration of an antibody that yields a response halfway between the baseline and the maximum value within a specified time period, were computed for each antibody based upon their binding curves and are shown in Table 1 below. […] A humanized form of antibody Ab1 identified by an appended “.H”, i.e., Ab1.H also bound PACAP38 with high affinity.

Test [6] has as its target T1, VIP (Vasoactive Intestinal Peptide). Description: SPR (ProteOn XPR36), antibody amine-coupled, peptide analyte, 1:1 Langmuir fit; SPR, direct binding of VIP to the antibody; weak, KD 2.8E-07 M.
The target is the same in test [7]. Description: SPR (ProteOn XPR36), antibody amine-coupled, peptide analyte, 1:1 Langmuir fit; SPR, direct binding of VIP to the antibody; weak, KD 1.1E-06 M.

B1: Ab10.H (antibody, human IgG1, kappa, N297A)
heavy: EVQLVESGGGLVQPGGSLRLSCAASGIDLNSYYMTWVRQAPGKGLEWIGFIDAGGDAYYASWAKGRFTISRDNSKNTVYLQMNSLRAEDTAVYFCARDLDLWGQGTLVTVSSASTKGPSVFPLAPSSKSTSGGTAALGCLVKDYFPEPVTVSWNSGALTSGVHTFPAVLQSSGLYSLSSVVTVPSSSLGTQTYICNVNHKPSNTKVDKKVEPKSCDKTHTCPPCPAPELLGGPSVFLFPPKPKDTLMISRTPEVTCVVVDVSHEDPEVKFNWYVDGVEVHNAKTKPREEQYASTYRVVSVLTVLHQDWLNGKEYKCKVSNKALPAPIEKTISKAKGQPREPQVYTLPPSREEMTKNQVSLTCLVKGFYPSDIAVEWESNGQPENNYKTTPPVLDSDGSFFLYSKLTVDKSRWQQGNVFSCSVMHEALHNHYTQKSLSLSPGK
light: DAQLTQSPSTLSASVGDRVTITCQSSESVYGNYLAWFQQKPGKAPKFLIYEASKLESGVPSRFSGSGSGTEFTLTISSLQPDDFATYYCAGGDISEGVAFGGGTKVEIKRTVAAPSVFIFPPSDEQLKSGTASVVCLLNNFYPREAKVQWKVDNALQSGNSQESVTEQDSKDSTYSLSSTLTLSKADYEKHKVYACEVTHQGLSSPVTKSFNRGEC
notes: Full-length humanized variant of Ab10
For B1, in test [1], the Kd (commonly the free concentration of one partner at which half of the binding sites on the other are occupied at equilibrium, for simple one-to-one binding) was found to be 100 nM; the koff (in general, a measure of how fast the partners let go of each other) was determined as 0.039 s⁻¹; the association rate constant (kon) (as a rule, a measure of how fast the partners come together) was 380000 M⁻¹ s⁻¹. For the same molecule, the half-maximal inhibitory concentration (IC50) (commonly the concentration that gives 50% inhibition) in test [2] worked out at 0.22 nM. For the same molecule, in test [3], the IC50 amounted to 14.5 nM.

B2: Ab10 (antibody, human IgG1, kappa, N297A, V domains shown)
VH: QSVEESGGRLVTPGTPLTLTCTVSGIDLNSYYMTWVRQAPGKGLEWIGFIDAGGDAYYASWAKGRFTISKTSTTVDLKITSPTTEDTATYFCARDLDLWGQGTLVTVSS
VL: AAVLTQTPSPVSAAVGGTVTINCQSSESVYGNYLAWFQQKPGQPPKLLIYEASKLESGVPSRFSGSGSGTQFTLTISDLQCDDAATYYCAGGDISEGVAFGGGTEVVVKR
notes: Full-length anti-PACAP antibody; rabbit variable regions cloned onto human constant regions (rabbit/human chimeric), expressed in HEK-293
Regarding B2, the IC50 in test [4] came out at 17.8 nM. Further, the EC50 (commonly the concentration at which the effect is half-maximal) in test [5] turned out to be 0.36 nM. Further, in test [6], binding was put at a Kd of 280 nM, the off-rate (koff) worked out at 0.01 s⁻¹ and the kon was determined as 37000 M⁻¹ s⁻¹.

B3: Ab20 (antibody, human IgG1, kappa, N297A, V domains shown)
VH: QSVEESGGRLVTPGTPLTLTCTVSGIDLSSYYMSWVRQAPGKGLEWIGFIDTDGSAYYATWAKGRFTISKTSTTVDLKITSPTTEDTATYFCARDLDLWGPGTLVTVSS
VL: AAVLTQTPSPVSAAVGGTVSISCQSSESVYSNYLAWFQQKPGQPPKFLIYEASKLASGVPSRFKGSGSGTQFTLTISDVQCDDAGTYYCAGGYSSEGVAFGGGTEVVVKR
notes: Full-length anti-PACAP antibody; rabbit/human chimeric
In turn, B3 registered an IC50 in test [4] of 32.7 nM. In test [7], this molecule gave a Kd of 1100 nM, a koff of 0.48 s⁻¹ and an on-rate (kon) of 450000 M⁻¹ s⁻¹. Further, the EC50 in test [5] was 0.38 nM.
